Results as given in patent US20260226138A1, “COMBINATION TUMOR THERAPY WITH THROMBOSIS INITIATION AND PLATELET RECRUITMENT” (Wisconsin Alumni Research Foundation, priority 2022, published 2026).

How the values were obtained:
[1] = molecular target: integrin receptors on the angiogenic blood vessels in the tumor site; test: cell-based or functional assay
CT26 subcutaneous tumor [2] = test: Anti-tumor efficacy, subcutaneous CT26 model, systemic treating strategy; format: in vivo, Balb/C mice; conditions: tTF or tTF-RGD i.v. 1.25 mg/kg, aPD-1 0.3 mg/kg i.v., 3 doses
Experimental: (§1) Anti-tumor efficacy of tTF-RGD+P-aPD-1: To establish a subcutaneous CT26 colon cancer model, Balb/C mice (6-8 weeks, male) were subcutaneously inoculated with 1×10^6 CT26 cells on the right flank. When the tumor volume reached100-150 mm^3, the mice were received different treatments, including saline, aPD-1, tTF-RGD, P-aPD-1, tTF+P-aPD-1 and tTF-RGD+P-aPD-1. For the local treating strategy, tTF or tTF-RGD (0.4 mg/kg) was firstly given by p.t. injection. Half an hour later, P-aPD-1 was administered via i.v. injection at the dose of 1 mg/kg. The treatment was conducted every other day for 3 times in total. For the systemic treating strategy, tTF or tTF-RGD (1.25 mg/kg) was first given by i.v. injection. One hour later, P-aPD-1 was administered via i.v. injection at the dose of 0.3 mg/kg. The treatment was conducted every other day for 3 times in total. The antibodies used in other treatment groups are also given at an equivalent dose. The tumor growth (calculated as: length×width^2×0.5) and body weight were monitored every other day. Mice were euthanized once the tumor volume exceeded 2 cm^3.

CT26 tumor-bearing mice [3] = test: Coagulation after p.t. injection of lower dose, CT26 tumors; format: in vivo; conditions: 0.4 mg/kg
Experimental: (§2) The coagulation initiation capability of tTF-RGD was investigated by treating CT26 tumor-bearing mice with 1.25 mg/kg of BSA, tTF, and tTF-RGD via intratumoral injection. Twenty-four hours later, the tumors were collected and subjected to H&E staining. To characterize the coagulation triggered by a lower dose of the tTF-RGD, 0.4 mg/kg of BSA, tTF, and tTF-RGD were administered into CT26 tumor-bearing mice via p.t. injection. Furthermore, mice bearing CT26 tumors were also treated with BSA, tTF and tTF-RGD (1.25 mg/kg) via i.v. injection every other day for 3 times in total. Twenty-four hours post injection of the last dose, the tumors and other major organs were collected and subjected to H&E staining.

CT26 tumor-bearing mice [4] = test: Coagulation after three i.v. doses, H&E of tumors and major organs; format: in vivo
Experimental: as §2

CT26 tumors [5] = system: CT26 tumors; parameters: species or system mice; conditions: mouse, in vivo, iv, 1.25 mg/kg
Experimental: Tumor vasculature-targeting and coagulation initiating ability tTF-RGD: The tumor vasculature-targeting ability of tTF-RGD was investigated using IVIS. Briefly, tTF and tTF-RGD were labeled with sulfo-Cy5.5-NHS ester and dialyzed against PBS at 4° C. to remove unreacted dyes. Balb/C mice (6-8 weeks, male) were inoculated with 1×10^6 CT26 cells. When the tumor volumes reached 100-150 mm^3 (calculated as length×width^2×0.5), Cy5.5-labeled tTF or tTF-RGD were injected at the dose of 1.25 mg/kg via i.v. route to mice bearing CT26 tumors. […] At 24 h, the mice were euthanized, and tumors were collected and visualized ex vivo. The fluorescence was analyzed using Living Image Software v.4.3.1 (Perkin Elmer).

CT26 tumors [6] = test: Tumor coagulation by Cy5.5-labeled fibrinogen accumulation (IVIS); format: in vivo, mice
Experimental: To assess the tumor vasculature-coagulation triggered by tTF-RGD, fibrinogen was labeled with sulfo-Cy5.5-NHS ester and dialyzed against PBS to remove unreacted dyes. BSA, tTF or tTF-RGD were injected at the dose of 1.25 mg/kg via i.v. route to mice bearing CT26 tumors, followed by i.v. injection of 1 nmol of fibrinogen. […] At 24 h, the mice were euthanized, and tumors were collected and visualized ex vivo.

CT26 subcutaneous tumor [7] = test: Anti-tumor efficacy, subcutaneous CT26 model, local treating strategy; format: in vivo, Balb/C mice; conditions: tTF or tTF-RGD p.t. 0.4 mg/kg, aPD-1 1 mg/kg i.v., 3 doses
Experimental: as §1

CT26 tumors [8] = test: Recruitment of P-aPD-1 to tumor, p.t. injected protein (local strategy); format: in vivo, mice
Experimental: (§3) Recruitment of P-aPD-1 by tTF-RGD treatment: The recruitment of P-aPD-1 to tumor sites by tTF-RGD-initiated coagulation was studied using IVIS. P-aPD-1 was reacted with sulfo-Cy5.5-NHS ester at room temperature for 1 h and washed three times with PBS to remove unreacted dyes. For the local treating strategy, BSA, tTF, and tTF-RGD were given at the dose of 0.4 mg/kg via p.t. injection to mice bearing CT26 tumors, followed by i.v. injection of approximately 1×10^8 P-aPD-1 (aPD-1:1 mg/kg). For the systemic treatment strategy, BSA, tTF, and tTF-RGD were given at the dose 1.25 mg/kg via i.v. injection to mice bearing CT26 tumors, followed by i.v. injection of approximately 1×10^8 P-aPD-1 (aPD-1:1 mg/kg). […] At 24 h, the mice were euthanized, and tumors were collected and visualized ex vivo.

CT26 tumor-bearing mice [9] = test: Coagulation initiation after intratumoral injection, CT26 tumors; format: in vivo
Experimental: as §2

[10] = system: TM00096 human breast tumor PDX; test: Coagulation in PDX tumors, H&E staining; format: in vivo, mice; conditions: i.v. injection with PM-NP, 24 h
Source text: Establishment of the PDX model: To establish the PDX model, TM00096 tumor samples were first propagated on Rag2-II2rg double knockout immunodeficient mice (R2G2® mice, 6-8 weeks, female) and then passaged to nude mice (6-8 weeks, female). Briefly, tumor tissues from R2G2® mice with TM00096 tumors were cut into small pieces, dispersed in the 1:1 mixture of DMEM medium and Matrigel® supplemented with FBS and antibiotics. The tiny tumor tissues were mixed well and placed on ice packs before being injected into the right flank of the nude mice using an 18-gauge needle (100 μL/mouse).
Next, it was determined if tTF-RGD can recruit PM-NP to tumor sites. To validate the translational potential of our treatment strategy, a clinically relevant PDX mouse model was established (FIG. 7C). TM00096 human breast tumor tissues were implanted on the flank of the immunodeficient mice. To affirm that systemic injection of tTF-RGD can initiate the tumor-selective coagulation on the PDX model, tTF+PM-NP or tTF-RGD+PM-NP were administered to the mice via i.v. injection as described above in the CT26-bearing mice model. Twenty-four hours later, the PDX tumors were collected and subjected to H&E staining. […] In order to visualize the tumor-selective accumulation of PM-NP, DiR dyes were encapsulated into NPs, which were further coated with platelet membranes. […]

CT26 tumors [11] = test: Recruitment of P-aPD-1 to tumor, i.v. injected protein (systemic strategy); format: in vivo, mice
Experimental: as §3

[12] = system: FX (proteolytic activation of FX by FVIIa); test: FX activation assay; format: biochemical; conditions: in the presence of factor VII (a) and Ca2+ ions
Experimental: The FX activation activity was tested using a modified procedure based on a previous report in the art. Briefly, to each well of a black 96-well plate was added 100 μL of BSA, tTF, and tTF-RGD with different concentrations in Tris-buffered saline containing 0.1% BSA. […] After 5 min of incubation at room temperature, FX (Haematologic Technologies, Inc.) was added to reach a final concentration of 30 nM and reacted for an additional 5 min. The reaction was quenched by addition of 20 μL of 100 mmol/L EDTA solution before 10 μL of 6-amino-1-naphthalenesulfonamide-based (ANSN) fluorogenic substrate (10 mM) (Haematologic Technologies, Inc.) was added to the mixture. Three minutes later, the fluorescence intensities were measured with a microplate reader (excitation=352 nm, emission=470 nm).

PDX breast tumors = test: Recruitment of DiR-loaded PM-NP to PDX tumor (IVIS); format: in vivo, mice; conditions: ex vivo, 24 h, i.v. 1.25 mg/kg
Experimental: Recruitment of PM-NP by tTF-RGD-triggered coagulation: The recruitment of PM-NP to tumor sites by tTF-RGD-initiated coagulation was studied using IVIS. NPs were loaded with DiR and coated with platelet membranes. The PM-NP was washed three times with PBS to remove unreacted dyes. tTF or tTF-RGD was given at the dose of 1.25 mg/kg via i.v. injection to mice bearing PDX breast tumors. One hour later, 2 mg of NPs and PM-NPs were administered via i.v. injection. […] At 24 h, the mice were euthanized, and tumors were collected and visualized ex vivo.

truncated tissue factor-Arg-Gly-Asp (RGD) fusion protein (tTF-RGD) (from UniProt P13726 33-250)
mean fluorescence intensity (MFI) of tumor tissues ex vivo, 24 h after i.v. injection of Cy5.5-labeled protein, against the tTF group [1]: 1.62 fold

B1: tTF-RGD: fused protein of truncated tissue factor (extracellular domain of TF) and RGD motif; SEQ ID NO: 9 (protein)
chain: SGTTNTVAAYNLTWKSTNFKTILEWEPKPVNQVYTVQISTKSGDWKSKCFYTTDTECDLTDEIVKDVKQTYLARVFSYPAGNVESTGSAGEPLYENSPEFTPYLETNLGQPTIQSFEQVGTKVNVTVEDERTLVRRNNTFLSLRDVFGKDLIYTLYYWKSSSSGKKTAKTNTNEFLIDVDKGENYCFSVQAVIPSRTVNRKSTDSPVECMGQEKGEFRRGD
median survival time (CT26 subcutaneous tumor [2]): 27 days | coagulation / hemorrhage in tumors (CT26 tumor-bearing mice [3]): effectively triggered obvious coagulation without severe hemorrhage | coagulation in tumor tissues (H&E) (CT26 tumor-bearing mice [4]; 24 h after three doses of i.v. injection, 1.25 mg/kg): initiated apparent coagulation | hemorrhage or thrombus in other major organs (H&E) (CT26 tumor-bearing mice [4]; after 3 doses of i.v. injection): no obvious hemorrhage or thrombus in other major organs | hemorrhage / thrombosis (CT26 tumor-bearing mice [4]; i.v. 1.25 mg/kg every other day for three times, data not shown): did not induce severe hemorrhage but could trigger thrombosis | mean fluorescence intensity (MFI) of tumor tissues relative to tTF group (CT26 tumors [5]): 1.62 fold | tumor targeting ability, fluorescence signals at tumor site (CT26 tumors [5]): much stronger tumor targeting ability than tTF | accumulation of Cy5.5-fibrinogen in tumors (CT26 tumors [6]; 24 h post i.v. injections, protein 1.25 mg/kg): strong signals | MFI of Cy5.5-fibrinogen in tumors, increase compared with tTF group (CT26 tumors [6]; ex vivo, 24 h, i.v. 1.25 mg/kg): 2.37 fold | median survival time (CT26 subcutaneous tumor [7]): 30 days | tumor growth inhibition (CT26 subcutaneous tumor [7]): negligible tumor-inhibiting activity | fluorescence signals of P-aPD-1 in tumor tissues, increase versus tTF group (CT26 tumors [8]; ex vivo, 24 h, protein p.t. 0.4 mg/kg): 1.87 fold | Rhodamine B-labeled P-aPD-1 fluorescence in resected tumors compared to BSA and tTF (CT26 tumors [8]; p.t. injection): More fluorescence signals | accumulation of Cy5.5-labeled P-aPD-1 at tumor site (imaging) (CT26 tumors [8]; protein p.t. 0.4 mg/kg then i.v. P-aPD-1, from 4 h post injection): strong tendency to accumulate at the tumor site | hemorrhage and thrombus formation in tumors (CT26 tumor-bearing mice [9]; 1.25 mg/kg, data not shown): significant hemorrhage and thrombus formation | coagulation in tumors (CT26 tumor-bearing mice [9]; 24 h post-injection): severe coagulation | coagulation in PDX tumor tissues (H&E) [10]: could induce coagulation in PDX tumor tissues without severe hemorrhage | accumulation of P-aPD-1 in tumor tissues, increase versus tTF group (CT26 tumors [11]; ex vivo, 24 h, protein i.v. 1.25 mg/kg): 1.89 fold | Rhodamine B-labeled P-aPD-1 fluorescence in resected tumors compared to BSA and tTF (CT26 tumors [11]; i.v. injection): More fluorescence signals | distribution of Cy5.5-labeled P-aPD-1 at tumor sites (imaging) compared to tTF and BSA (CT26 tumors [11]; protein i.v. 1.25 mg/kg then i.v. P-aPD-1, time-course): increased distribution of P-aPD-1 at the tumor sites | FX activation activity [12]: dose-dependent FX activation activity | MFI of tumors, accumulation of PM-NP, increase versus tTF treatment (PDX breast tumors): 5.05 fold
